Test results taken from IntAct's records for PubMed 25042851.

These substances were tested against mlp3a_human MAP1LC3A (UniProt Q9H492).

Substance	effect of a mutation on the interaction
Toll-interacting protein (Homo sapiens) (from UniProt Q9H0E2) W151A;Y152A;S153A;L154A	decreasing interaction strength
Toll-interacting protein (Homo sapiens) (from UniProt Q9H0E2) W133A;T134A;H135A;I136A;W151A;Y152A;S153A;L154A	disrupting interaction strength
Toll-interacting protein (Homo sapiens) (from UniProt Q9H0E2) W133A;T134A;H135A;I136A	decreasing interaction strength
